Values of other authors as cited in publication PMC4077824, “Conserved Prosegment Residues Stabilize a Late-Stage Folding Transition State of Pepsin Independently of Ground States” (PLoS ONE, 2014).

Tested on: αLP
Description: General thermodynamic and kinetic features of protein folding are known, such as that the natively folded conformation of a protein is thermodynamically stabilized and that there is a relationship between topology and folding rate, which holds for both two-state and multi-state folding proteins, [3]. […] In the case of pepsin, Rp was characterized by a ΔG unf of 5.8 kcal/mol, a 10% increase in unordered secondary structure and identical tertiary structure to Np (both yield R g ∼20 Å).

B1: αLP: serine peptidase αLP (alpha-lytic protease) (protein, UniProt P00778 200-397, looked up)
Alpha-lytic protease: ANIVGGIEYSINNASLCSVGFSVTRGATKGFVTAGHCGTVNATARIGGAVVGTFAARVFPGNDRAWVSLTSAQTLLPRVANGSSFVTVRGSTEAAVGAAVCRSGRTTGYQCGTITAKNVTANYAEGAVRGLTQGNACMGRGDSGGSWITSAGQAQGVMSGGNVQSNGNNCGIPASQRSSLFERLQPILSQYGLSLVTG
ΔG N-I (native state relative to an intermediate state, ref [8]): -4 kcal/mol | stability of intermediate over native state (αLP intermediate more stable than native state, ref [4]): 4 kcal/mol | ΔG unf (αLP intermediate, ref [4]): 1 kcal/mol
